In paper PMC10747188:

How the values were obtained:
[1] = anti-V5 Western blot of transfected cells; settings: glycan lost; control: wild-type MFSD2a
[2] = anti-V5 immunofluorescence, confocal, Cos-7 cells; settings: glycan lost; control: wild-type MFSD2a
[3] = luciferase infection assay in transfected HeLa cells; settings: glycan lost; control: wild-type MFSD2a
[4] = target: T1, MFSD2a, endogenous on human cell lines (human (endogenous in HEK293T, Jurkat, HUVEC, U87-MG)) (UniProt Q8NA29)
T1 sequence: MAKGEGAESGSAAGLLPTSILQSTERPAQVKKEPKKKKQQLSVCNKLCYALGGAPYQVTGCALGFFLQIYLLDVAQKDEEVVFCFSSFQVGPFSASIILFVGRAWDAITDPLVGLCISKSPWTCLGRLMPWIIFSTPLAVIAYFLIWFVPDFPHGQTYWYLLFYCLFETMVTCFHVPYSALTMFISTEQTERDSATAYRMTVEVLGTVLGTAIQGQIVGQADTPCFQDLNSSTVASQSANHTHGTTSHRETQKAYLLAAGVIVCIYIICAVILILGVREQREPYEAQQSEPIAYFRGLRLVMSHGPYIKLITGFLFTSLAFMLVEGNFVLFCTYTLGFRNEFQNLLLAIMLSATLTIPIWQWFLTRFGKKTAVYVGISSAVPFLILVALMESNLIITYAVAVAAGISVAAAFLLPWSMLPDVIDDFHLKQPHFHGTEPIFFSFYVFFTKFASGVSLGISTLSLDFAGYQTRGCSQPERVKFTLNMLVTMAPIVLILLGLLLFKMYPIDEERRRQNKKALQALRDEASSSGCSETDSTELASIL

[5] = target: T1, MFSD2a, endogenous on human cell lines (human (endogenous in HEK293T, Jurkat, HUVEC, U87-MG)); remark: listed apart in the source
[6] = target: simian MFSD2a, endogenous on Cos-7 cells (simian (endogenous in Cos-7))
[7] = target: T2, MFSD2a N217Q-V5, expressed in HeLa cells (UniProt Q8NA29)
T2 sequence: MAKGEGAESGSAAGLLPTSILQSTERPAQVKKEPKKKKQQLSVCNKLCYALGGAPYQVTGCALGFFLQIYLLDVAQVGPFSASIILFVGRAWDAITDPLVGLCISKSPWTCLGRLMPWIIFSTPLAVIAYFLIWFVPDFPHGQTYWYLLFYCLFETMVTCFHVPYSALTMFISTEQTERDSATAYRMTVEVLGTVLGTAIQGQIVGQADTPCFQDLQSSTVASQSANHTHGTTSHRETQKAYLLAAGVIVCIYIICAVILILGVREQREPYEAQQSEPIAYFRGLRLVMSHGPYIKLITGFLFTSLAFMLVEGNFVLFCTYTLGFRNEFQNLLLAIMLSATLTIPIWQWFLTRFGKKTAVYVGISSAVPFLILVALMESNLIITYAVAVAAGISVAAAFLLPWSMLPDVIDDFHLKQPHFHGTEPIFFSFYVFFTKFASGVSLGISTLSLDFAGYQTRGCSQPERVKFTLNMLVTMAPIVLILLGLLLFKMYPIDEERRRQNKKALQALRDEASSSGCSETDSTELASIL

[8] = target: T3, MFSD2a N227Q-V5, expressed in HeLa cells (UniProt Q8NA29)
T3 sequence: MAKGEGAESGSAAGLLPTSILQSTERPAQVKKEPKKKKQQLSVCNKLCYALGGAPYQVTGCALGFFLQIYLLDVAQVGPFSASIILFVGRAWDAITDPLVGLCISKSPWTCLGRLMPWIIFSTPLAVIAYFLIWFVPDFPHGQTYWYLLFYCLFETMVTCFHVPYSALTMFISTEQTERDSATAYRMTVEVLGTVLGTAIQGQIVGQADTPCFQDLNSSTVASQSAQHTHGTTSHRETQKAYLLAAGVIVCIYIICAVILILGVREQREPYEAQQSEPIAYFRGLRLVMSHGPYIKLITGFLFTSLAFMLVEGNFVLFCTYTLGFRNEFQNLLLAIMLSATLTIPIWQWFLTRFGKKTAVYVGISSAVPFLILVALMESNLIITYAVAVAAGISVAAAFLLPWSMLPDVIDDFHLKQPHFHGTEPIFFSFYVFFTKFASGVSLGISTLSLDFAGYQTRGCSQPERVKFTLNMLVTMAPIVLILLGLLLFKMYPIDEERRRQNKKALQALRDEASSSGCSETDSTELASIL

[9] = target: T1, MFSD2a, endogenous on human cell lines (human (endogenous in HEK293T, Jurkat, HUVEC, U87-MG)); remark: listed apart in the source

B1: MFSD2a: N217Q (protein)
parent chain: MAKGEGAESGSAAGLLPTSILQSTERPAQVKKEPKKKKQQLSVCNKLCYALGGAPYQVTGCALGFFLQIYLLDVAQVGPFSASIILFVGRAWDAITDPLVGLCISKSPWTCLGRLMPWIIFSTPLAVIAYFLIWFVPDFPHGQTYWYLLFYCLFETMVTCFHVPYSALTMFISTEQTERDSATAYRMTVEVLGTVLGTAIQGQIVGQADTPCFQDLNSSTVASQSANHTHGTTSHRETQKAYLLAAGVIVCIYIICAVILILGVREQREPYEAQQSEPIAYFRGLRLVMSHGPYIKLITGFLFTSLAFMLVEGNFVLFCTYTLGFRNEFQNLLLAIMLSATLTIPIWQWFLTRFGKKTAVYVGISSAVPFLILVALMESNLIITYAVAVAAGISVAAAFLLPWSMLPDVIDDFHLKQPHFHGTEPIFFSFYVFFTKFASGVSLGISTLSLDFAGYQTRGCSQPERVKFTLNMLVTMAPIVLILLGLLLFKMYPIDEERRRQNKKALQALRDEASSSGCSETDSTELASIL
- expression_or_secretion [1]: no change
- localisation_or_trafficking [2]: no change
- other: galectin-1 enhancement of Syn-2 pseudovirus infectivity, fold_change [3]: no change, 10.8-fold +/− 3.96 vs 9.3 +/− 1.52

B2: MFSD2a: N227Q (protein)
parent chain: MAKGEGAESGSAAGLLPTSILQSTERPAQVKKEPKKKKQQLSVCNKLCYALGGAPYQVTGCALGFFLQIYLLDVAQVGPFSASIILFVGRAWDAITDPLVGLCISKSPWTCLGRLMPWIIFSTPLAVIAYFLIWFVPDFPHGQTYWYLLFYCLFETMVTCFHVPYSALTMFISTEQTERDSATAYRMTVEVLGTVLGTAIQGQIVGQADTPCFQDLNSSTVASQSANHTHGTTSHRETQKAYLLAAGVIVCIYIICAVILILGVREQREPYEAQQSEPIAYFRGLRLVMSHGPYIKLITGFLFTSLAFMLVEGNFVLFCTYTLGFRNEFQNLLLAIMLSATLTIPIWQWFLTRFGKKTAVYVGISSAVPFLILVALMESNLIITYAVAVAAGISVAAAFLLPWSMLPDVIDDFHLKQPHFHGTEPIFFSFYVFFTKFASGVSLGISTLSLDFAGYQTRGCSQPERVKFTLNMLVTMAPIVLILLGLLLFKMYPIDEERRRQNKKALQALRDEASSSGCSETDSTELASIL
- expression_or_secretion [1]: no change
- localisation_or_trafficking [2]: no change
- other: galectin-1 enhancement of Syn-2 pseudovirus infectivity, fold_change [3]: no change, 10.2-fold +/− 4.75 vs 9.3 +/− 1.52

B3: MFSD2a: double mutant (protein)
parent chain: MAKGEGAESGSAAGLLPTSILQSTERPAQVKKEPKKKKQQLSVCNKLCYALGGAPYQVTGCALGFFLQIYLLDVAQVGPFSASIILFVGRAWDAITDPLVGLCISKSPWTCLGRLMPWIIFSTPLAVIAYFLIWFVPDFPHGQTYWYLLFYCLFETMVTCFHVPYSALTMFISTEQTERDSATAYRMTVEVLGTVLGTAIQGQIVGQADTPCFQDLNSSTVASQSANHTHGTTSHRETQKAYLLAAGVIVCIYIICAVILILGVREQREPYEAQQSEPIAYFRGLRLVMSHGPYIKLITGFLFTSLAFMLVEGNFVLFCTYTLGFRNEFQNLLLAIMLSATLTIPIWQWFLTRFGKKTAVYVGISSAVPFLILVALMESNLIITYAVAVAAGISVAAAFLLPWSMLPDVIDDFHLKQPHFHGTEPIFFSFYVFFTKFASGVSLGISTLSLDFAGYQTRGCSQPERVKFTLNMLVTMAPIVLILLGLLLFKMYPIDEERRRQNKKALQALRDEASSSGCSETDSTELASIL
- expression_or_secretion [1]: decreases

B4: Syncytin-2, expressed in HEK293T cells (cell fusion assay) (natural protein)
chain: AYRHPDFPLLEKAQQLLQSTGSPYSTNCWLCTSSSTETPGTAYPASPREWTSIEAELHISYRWDPNLKGLMRPANSLLSTVKQDFPDIRQKPPIFGPIFTNINLMGIAPICVMAKRKNGTNVGTLPSTVCNVTFTVDSNQQTYQTYTHNQFRHQPRFPKPPNITFPQGTLLDKSSRFCQGRPSSCSTRNFWFRPADYNQCLQISNLSSTAEWVLLDQTRNSLFWENKTKGANQSQTPCVQVLAGMTIATSYLGISAVSEFFGTSLTPLFHFHISTCLKTQGAFYICGQSIHQCLPSNWTGTCTIGYVTPDIFIAPGNLSLPIPIYGNSPLPRVRRAIHFIPLLAGLGILAGTGTGIAGITKASLTYSQLSKEIANNIDTMAKALTTMQEQIDSLAAVVLQNRRGLDMLTAAQGGICLALDEKCCFWVNQSGKVQDNIRQLLNQASSLRERATQGWLNWEGTWKWFSWVLPLTGPLVSLLLLLLFGPCLLNLITQFVSSRLQAIKLQTNLSAGRHPRNIQESPF
- cellular fusion index of Syn-2-transfected HEK293T cells with 4 µM recombinant Gal-1 for 24 h (8.56% +/− 0.6 with PBS; 5.76% +/− 0.22 with Gal-1 and 50 mM lactose) [4]: 17.5%

B5: Syncytin-2 (Flag-tagged), on pseudotyped NL4.3 virions (natural protein)
chain: AYRHPDFPLLEKAQQLLQSTGSPYSTNCWLCTSSSTETPGTAYPASPREWTSIEAELHISYRWDPNLKGLMRPANSLLSTVKQDFPDIRQKPPIFGPIFTNINLMGIAPICVMAKRKNGTNVGTLPSTVCNVTFTVDSNQQTYQTYTHNQFRHQPRFPKPPNITFPQGTLLDKSSRFCQGRPSSCSTRNFWFRPADYNQCLQISNLSSTAEWVLLDQTRNSLFWENKTKGANQSQTPCVQVLAGMTIATSYLGISAVSEFFGTSLTPLFHFHISTCLKTQGAFYICGQSIHQCLPSNWTGTCTIGYVTPDIFIAPGNLSLPIPIYGNSPLPRVRRAIHFIPLLAGLGILAGTGTGIAGITKASLTYSQLSKEIANNIDTMAKALTTMQEQIDSLAAVVLQNRRGLDMLTAAQGGICLALDEKCCFWVNQSGKVQDNIRQLLNQASSLRERATQGWLNWEGTWKWFSWVLPLTGPLVSLLLLLLFGPCLLNLITQFVSSRLQAIKLQTNLSAGRHPRNIQESPF
- fold-change in infectivity (luciferase) of Syn-2-pseudotyped viruses on HEK293T cells with 4 µM Gal-1 against virus only; abolished by 50 mM lactose [5]: 5.51 fold
- fold-change in infectivity (luciferase) of Syn-2-pseudotyped viruses on Cos-7 cells with 4 µM Gal-1 against virus only; abolished by 50 mM lactose [6]: 6.93 fold
- fold-change in infectivity (luciferase) of Syn-2-pseudotyped viruses on N217Q-MFSD2a-transfected HeLa cells with Gal-1 against control; counteracted by lactose [7]: 10.8 fold
- fold-change in infectivity (luciferase) of Syn-2-pseudotyped viruses on N227Q-MFSD2a-transfected HeLa cells with Gal-1 against control; counteracted by lactose [8]: 10.2 fold
- fold-change in infectivity (luciferase) of Syn-2-pseudotyped viruses on HUVEC cells with 4 µM Gal-1 against virus only; inhibited by 50 mM lactose [9]: 33.4 fold
- fold-change in infectivity (luciferase) of Syn-2-pseudotyped viruses on Jurkat cells with 4 µM Gal-1 against virus only; inhibited by 50 mM lactose [9]: 14.1 fold
- fold-change in infectivity (luciferase) of Syn-2-pseudotyped viruses on U87-MG cells with 4 µM Gal-1 against virus only; inhibited by 50 mM lactose [9]: 6.76 fold
